B1: chimeric NI-105.17C1 (ch17C1), mouse IgG2a/lambda (antibody, V domains shown)
VH: EVQLVQSGAEVKKPGESLKISCKAFGYSFTNFWIGWVRQVPGKGLEWVGIIYPGDSDTRYSPSFQGQVTISADKSIDTAYLQWGHLKASDSAMYFCARRGFWTGSQIEYWGQGTQVTVSS
VL: QSALTQPPSASGSPGHSVTISCTGTSSDVGNYSFVSWYQQYPGKAPKIIIYDVSKRSSGVPDRFFGSKSANTASLTVSGVQEEDEADYFCSSYGGSKYPWVFGGGTKLTVLG
modifications: N-glycan on Asn-31 (CDR1), fully occupied on CHO expression
notes: also called ch17C1-mIgG2a
B2: recombinant human antibody NI-105.14E2 (germlined) (antibody, human IgG1, V domains shown)
VH: EVQLVQSGAEVKKPGDSLRISCKASGYNFPNYWIGWVRQMPGKGLEWMGIIYPGDSDIRYSPSFQGHVTISSDKSITTAYLQWTSLKVADSAMYYCARVERPDKGGWFGPWGQGTLVTVSS
VL: DIVMTQSPDSLAVSLGERATINCKSSQTLLYTSNNQNYLAWYQHKPGQPPKVLIYWASTREYGVPDRFSGSGSGTDFTLTISSLQPEDVAVYYCQQYYNSPYTFGQGTKLEIK
notes: Complete recombinant human IgG1 by the methods
B3: recombinant human antibody NI-105.39E2 (germlined) (antibody, human IgG1, V domains shown)
VH: EVQLVESGGGLVQPGGSLRLSCAASGFTFSAYGMNWVRQAPGKGLEWVAHITGSGTPIFYADSVKGRFTISRDNAKSSLYLQMNSLRNDDTALYFCVRGTVDYWGQGTLVTVSS
VL: QAGLTQPPSVSKDLRQTATLTCSGNSNNVGNQGAAWLQQFPGHPPKLLFYENINRPSGISERFSASRSGNTASLTITGLQPEDEADYYCSAWDGHLNAWVFGGGTKLTVL
notes: as for B2
B4: recombinant human antibody NI-105.9C4 (germlined) (antibody, human IgG1, V domains shown)
VH: QVQLVQSGAEVKKPGASVKVSCKASGYIFTAFFMHWVRQAPGQGLEWMGWINPDSGATKYAHNFQGRVTMTRDTSISTAFMELSGLKSDDTGVYYCATGMAVTGNFWGQGTLVTVSS
VL: SYELTQPPSVSVSPGQTARITCSGDVLAETYARWFQQKPGQAPVLVMYRDRERPAGIPERFSGSSSGNTVTLTISGAQAEDEAVYHCHSVADNNLDWVFGGGTKLTVL
notes: Complete human IgG1 by the methods
B5: recombinant human antibody NI-105.19C6 (germlined) (antibody, human IgG1, V domains shown)
VH: EVQLVQSGAEVKKPGESLKISCKASGYSFISYWVGWVRQMPGKGLEWMGIIYPGDSDTRYSPSFEGQVSISADKSISTAYLQWTSLKASDTAMYYCARHWGPAAVTDSPWFGPWGQGTLVTVSS
VL: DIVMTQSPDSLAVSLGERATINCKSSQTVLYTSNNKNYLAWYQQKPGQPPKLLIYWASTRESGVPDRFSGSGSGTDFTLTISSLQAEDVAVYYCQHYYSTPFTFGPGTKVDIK
notes: as for B2
B6: recombinant human antibody NI-105.6L9 (germlined) (antibody, human IgG1, V domains shown)
VH: EVQLVESGGGLVQPGGSLRLSCAGTRFTFSTYAMGWVRQAPGRGLEWVSAIGGSGDSTSYADSVKGRFTISRDNSKNTLYLQMNSLRAEDTAVYYCAKGVYDYLWGSYRLFDYWGQGTLVTVSS
VL: SYVLTQPPSVSVAPGQTARFTCGGNNIASKSVHWYQQKPGQAPVLVVYDDSDRPSRIPERFSGSNSGNTATLTISRVEAGDEADYYCQVWDSTSDHVVFGGGTKLTVL
notes: as for B2
B7: recombinant human antibody NI-105.26B12 (germlined) (antibody, human IgG1, V domains shown)
VH: QVQLVESGGGVVQPGRSLRLSCAASGFTFTRYGMHWVRQAPGKGLEWVAVIWYDGTNKYYADSLQGRFTISRDTSTNTLYLQMNGLRVEDRAVYYCAREGFQGAIDYWGQGTLVTVSS
VL: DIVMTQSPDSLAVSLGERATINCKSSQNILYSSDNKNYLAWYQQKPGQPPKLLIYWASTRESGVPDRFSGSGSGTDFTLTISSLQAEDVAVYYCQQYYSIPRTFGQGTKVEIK
notes: as for B2
B8: recombinant human antibody NI-105.60E7 (germlined) (antibody, human IgG1, V domains shown)
VH: EVQLVESGGGFVRPGGSITLSCATSGFTFTKAWMTWVRQAPVKGLEWIGHIKTRIEGATTDYAAPVEGRFTISRDDSKNMVYLQMNSLKTEDSGIYYCSTDFDYWGQGTLVTVSS
VL: DVVMTQSPLSLPVTLGQPASISCTSSQSLLYSDGNTYLNWFQQRPGQSPRRLMYKVSKRDPGVPDRFSGSGSGTDFTLSISRVEAEDVGVYYCMQGSLWPRYTFGQGTKVEIK
notes: as for B2
B9: recombinant human antibody NI-105.12E12 (germlined) (antibody, human IgG1, V domains shown)
VH: EVQLVESGGGLVQPGGSLKLSCAASGFSFSDSAFHWARQASGKGLEWVGRIRSKGNNYATAYAASVKGRFTVSRDDSKNTTYLQMNSLKTDDTAIYYCTRQGPSYGGINWGLGTLVTVSS
VL: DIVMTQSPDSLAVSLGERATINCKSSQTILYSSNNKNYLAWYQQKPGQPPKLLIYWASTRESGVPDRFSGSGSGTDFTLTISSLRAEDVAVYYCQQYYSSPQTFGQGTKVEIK
notes: as for B2
B10: recombinant human antibody NI-105.22E1 (germlined) (antibody, human IgG1, V domains shown)
VH: EVQLVQSGAEVKKPGESLKISCKGSGYRFTTYWIGWVRQMPGKGLEWMGIIYPGDSDTRYSPSYQGQVTISADKSISTAYLQWSSLKASDTGMYYCARVAGDIGYENYYYYGMDVWGQGTTVTVSS
VL: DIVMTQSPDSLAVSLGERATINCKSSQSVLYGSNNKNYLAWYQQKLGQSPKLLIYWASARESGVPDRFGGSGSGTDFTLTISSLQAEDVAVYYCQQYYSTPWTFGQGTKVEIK
notes: as for B2

biological target: T1, recombinant human tau, isoform Tau-F of 441 aa (hTau40) (human, UniProt P10636 1-758); test: ELISA on recombinant Tau, absorbance at 450 nm
T1 construct: Bought from rPeptide (Bogart, GA, USA); coated on ELISA plates, blotted, or spotted as overlapping peptides; also called full-length tau; rTau
T1 sequence (P10636 other isoform, or with tags, fused parts or gaps limits assumed): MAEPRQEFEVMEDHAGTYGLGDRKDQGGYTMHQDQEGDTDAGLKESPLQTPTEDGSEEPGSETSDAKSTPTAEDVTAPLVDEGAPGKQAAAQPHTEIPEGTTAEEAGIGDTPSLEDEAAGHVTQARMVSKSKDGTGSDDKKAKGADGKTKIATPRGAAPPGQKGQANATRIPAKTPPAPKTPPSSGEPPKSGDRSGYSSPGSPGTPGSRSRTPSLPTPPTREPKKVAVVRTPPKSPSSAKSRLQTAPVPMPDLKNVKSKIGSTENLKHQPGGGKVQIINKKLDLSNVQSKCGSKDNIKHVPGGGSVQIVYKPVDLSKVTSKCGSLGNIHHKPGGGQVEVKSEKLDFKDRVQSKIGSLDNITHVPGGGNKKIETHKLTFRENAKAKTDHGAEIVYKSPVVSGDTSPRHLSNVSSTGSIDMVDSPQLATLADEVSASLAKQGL

Binder	EC50 (read off the curve) [µg/mL]
B1	~0.8

biological target: T1, recombinant human tau, isoform Tau-F of …; test: direct ELISA on coated recombinant tau (rTau)

Binder	EC50 [nM]
B2	0.65
B3	0.7
B4	5.2
B5	4
B6	2.5
B7	2.9
B8	0.18
B9	28.6
B10	1.1

Reference: patent US20200262895A1 (Biogen, published 2020)
